From patent US20250129166A1 (Five Prime, published 2025) come the findings set out here.

Experiment [1] has as its target T1, human VISTA on cells (endogenous on human monocytes and AML3 cells; ectopic full-length on 293T cells) (human, UniProt Q9H7M9 33-311).
T1 sequence (looked up): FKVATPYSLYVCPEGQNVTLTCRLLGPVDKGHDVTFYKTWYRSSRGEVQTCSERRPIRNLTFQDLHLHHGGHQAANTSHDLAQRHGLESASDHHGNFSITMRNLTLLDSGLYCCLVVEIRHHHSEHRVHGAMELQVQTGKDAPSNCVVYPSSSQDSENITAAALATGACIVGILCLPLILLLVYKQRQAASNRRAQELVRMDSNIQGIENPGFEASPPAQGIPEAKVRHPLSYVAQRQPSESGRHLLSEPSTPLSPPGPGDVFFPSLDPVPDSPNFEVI
The experiment in a line: cell-based or functional assay.

The target of experiment [2] is T2, full length human PSGL-1 (SEQ ID NO: 3) expressed on heparan sulfate-mutant CHO cells (human, UniProt Q14242 42-412).
T2 construct: also called CHO-PSGL-1 cells
T2 sequence: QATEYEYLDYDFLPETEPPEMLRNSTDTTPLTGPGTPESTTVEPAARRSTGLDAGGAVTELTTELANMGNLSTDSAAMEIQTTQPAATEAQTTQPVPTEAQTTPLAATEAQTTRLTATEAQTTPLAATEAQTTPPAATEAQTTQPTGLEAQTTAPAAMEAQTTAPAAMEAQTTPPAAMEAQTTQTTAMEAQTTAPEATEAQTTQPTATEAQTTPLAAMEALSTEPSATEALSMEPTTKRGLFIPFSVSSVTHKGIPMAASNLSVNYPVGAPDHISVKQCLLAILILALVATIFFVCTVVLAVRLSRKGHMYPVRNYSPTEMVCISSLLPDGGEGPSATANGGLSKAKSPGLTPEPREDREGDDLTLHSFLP
Description: VISTA-Fc binding to CHO-PSGL-1 cells at pH 6.0.

B1: VISTA.5 (mAb1) (antibody, V domains shown)
VH: AVQLQESGPGLVRPSQSLSLTCTVTDYSITSDYAWNWIRQFPGSKLEWLGFIGYSGNTNYNPSLESRISITRHTSKNQFFLHLNSMTTEDTATYYCARSLYGGSHWYFDVWGAGTTVTVSS
VL: DIVLTQSPASLAVSLGQRATISCRGSESVEYYGTILMQWYQQKPGQPPKLLIYGASNVESGVPARFSGSGSGTDFSLNIHPVEEDDIAMYFCQQSRKVPWTFGGGTKLEIK
As for B1, in experiment [1], the “EC50 of AML3 cell viability (Cell Titer Glo), endolysosome-dependent secondary antibody drug conjugate killing assay” value amounted to 0.485 µg/mL.

B2: H2R mutant (Fc fusion)
chain: FKVATPYSLYVCPEGQNVTLTCRLLGPVDKGHDVTFYKTWYRSSRGEVQTCSERRPIRNLTFQDLHLHHGGHQAANTSHDLAQRHGLESASDHHGNFSITMRNLTLLDSGLYCCLVVEIRRRRSEHRVHGAMELQVQTGKDAPSNCVVYPSSSQDSENITAA
notes: Produced by transient transfection of Expi293 cells; not shown: human IgG1 Fc part and any linker or tag of the VISTA-Fc construct
Consider B2, for which the binding result in experiment [2] is “binds”.
